Measured values: patent publication US11653679B2, “High-purity steviol glycosides” (PureCircle Sdn Bhd, priority 2014, dated 2023)

Assay: Directed evolution of UGT76G1, Rebaudioside D to Rebaudioside M, round 1 (Example 26)
Type: biochemical
Conditions: 100 μL fresh lysate, 0.5 mM Rebaudioside D, 30° C., pH 7.2
In short: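 Conversion and initial rate were determined by HPLC with CAD detection on samples taken at 2, 4, 7 and 24 h. Reactions ran at 30 °C in 50 mM phosphate buffer pH 7.2 with lysate, Rebaudioside D (0.5 mM), UDP-glucose (2.5 mM) and MgCl2 (3 mM).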

B1: UGT76G1var46: UGT76G1 variant, mutations F22L_Q266E_I295M (protein, UniProt Q6VAB4 1-458, looked up, variant F22L Q266E I295M)
UDP-glycosyltransferase 76G1: MENKTETTVRRRRRIILFPVPLQGHINPILQLANVLYSKGFSITIFHTNFNKPKTSNYPHFTFRFILDNDPQDERISNLPTHGPLAGMRIPIINEHGADELRRELELLMLASEEDEEVSCLITDALWYFAQSVADSLNLRRLVLMTSSLFNFHAHVSLPQFDELGYLDPDDKTRLEEQASGFPMLKVKDIKSAYSNWQILKEILGKMIKQTKASSGVIWNSFKELEESELETVIREIPAPSFLIPLPKHLTASSSSLLDHDRTVFEWLDQQPPSSVLYVSFGSTSEVDEKDFLEMARGLVDSKQSFLWVVRPGFVKGSTWVEPLPDGFLGERGRIVKWVPQQEVLAHGAIGAFWTHSGWNSTLESVCEGVPMIFSDFGLDQPLNARYMSDVLKVGVYLENGWERGEIANAIRRVMVDEEGEYIRQNARVLKQKADVSLMKGGSSYESLESLVSYISSL
conversion Reb D to Reb M after 24 h: 0.6%
initial rate: 9.8E+05 Reb M area/min

B2: UGT76G1var47: UGT76G1 variant, mutations E229A_T284I_S389E (protein, UniProt Q6VAB4 1-458, looked up, variant E229A T284I S389E)
UDP-glycosyltransferase 76G1: MENKTETTVRRRRRIILFPVPFQGHINPILQLANVLYSKGFSITIFHTNFNKPKTSNYPHFTFRFILDNDPQDERISNLPTHGPLAGMRIPIINEHGADELRRELELLMLASEEDEEVSCLITDALWYFAQSVADSLNLRRLVLMTSSLFNFHAHVSLPQFDELGYLDPDDKTRLEEQASGFPMLKVKDIKSAYSNWQILKEILGKMIKQTKASSGVIWNSFKELEESALETVIREIPAPSFLIPLPKHLTASSSSLLDHDRTVFQWLDQQPPSSVLYVSFGSISEVDEKDFLEIARGLVDSKQSFLWVVRPGFVKGSTWVEPLPDGFLGERGRIVKWVPQQEVLAHGAIGAFWTHSGWNSTLESVCEGVPMIFSDFGLDQPLNARYMEDVLKVGVYLENGWERGEIANAIRRVMVDEEGEYIRQNARVLKQKADVSLMKGGSSYESLESLVSYISSL
conversion Reb D to Reb M after 24 h: 4.8%
initial rate: 2.7E+06 Reb M area/min

B3: UGT76G1var48: UGT76G1 variant, mutations V394I_Y397E_Q432E (protein, UniProt Q6VAB4 1-458, looked up, variant V394I Y397E Q432E)
UDP-glycosyltransferase 76G1: MENKTETTVRRRRRIILFPVPFQGHINPILQLANVLYSKGFSITIFHTNFNKPKTSNYPHFTFRFILDNDPQDERISNLPTHGPLAGMRIPIINEHGADELRRELELLMLASEEDEEVSCLITDALWYFAQSVADSLNLRRLVLMTSSLFNFHAHVSLPQFDELGYLDPDDKTRLEEQASGFPMLKVKDIKSAYSNWQILKEILGKMIKQTKASSGVIWNSFKELEESELETVIREIPAPSFLIPLPKHLTASSSSLLDHDRTVFQWLDQQPPSSVLYVSFGSTSEVDEKDFLEIARGLVDSKQSFLWVVRPGFVKGSTWVEPLPDGFLGERGRIVKWVPQQEVLAHGAIGAFWTHSGWNSTLESVCEGVPMIFSDFGLDQPLNARYMSDVLKIGVELENGWERGEIANAIRRVMVDEEGEYIRQNARVLKEKADVSLMKGGSSYESLESLVSYISSL
initial rate: 3.8E+07 Reb M area/min

B4: UGT76G1var49: UGT76G1 variant, mutations F41L_Q266E_T284I_Y397Q (protein, UniProt Q6VAB4 1-458, looked up, variant F41L Q266E T284I Y397Q)
UDP-glycosyltransferase 76G1: MENKTETTVRRRRRIILFPVPFQGHINPILQLANVLYSKGLSITIFHTNFNKPKTSNYPHFTFRFILDNDPQDERISNLPTHGPLAGMRIPIINEHGADELRRELELLMLASEEDEEVSCLITDALWYFAQSVADSLNLRRLVLMTSSLFNFHAHVSLPQFDELGYLDPDDKTRLEEQASGFPMLKVKDIKSAYSNWQILKEILGKMIKQTKASSGVIWNSFKELEESELETVIREIPAPSFLIPLPKHLTASSSSLLDHDRTVFEWLDQQPPSSVLYVSFGSISEVDEKDFLEIARGLVDSKQSFLWVVRPGFVKGSTWVEPLPDGFLGERGRIVKWVPQQEVLAHGAIGAFWTHSGWNSTLESVCEGVPMIFSDFGLDQPLNARYMSDVLKVGVQLENGWERGEIANAIRRVMVDEEGEYIRQNARVLKQKADVSLMKGGSSYESLESLVSYISSL
conversion Reb D to Reb M after 24 h: 2.6%
initial rate: 1.1E+06 Reb M area/min

B5: UGT76G1var1: UGT76G1 variant, mutations E224A_F314S_R334K (protein, UniProt Q6VAB4 1-458, looked up, variant E224A F314S R334K)
UDP-glycosyltransferase 76G1: MENKTETTVRRRRRIILFPVPFQGHINPILQLANVLYSKGFSITIFHTNFNKPKTSNYPHFTFRFILDNDPQDERISNLPTHGPLAGMRIPIINEHGADELRRELELLMLASEEDEEVSCLITDALWYFAQSVADSLNLRRLVLMTSSLFNFHAHVSLPQFDELGYLDPDDKTRLEEQASGFPMLKVKDIKSAYSNWQILKEILGKMIKQTKASSGVIWNSFKALEESELETVIREIPAPSFLIPLPKHLTASSSSLLDHDRTVFQWLDQQPPSSVLYVSFGSTSEVDEKDFLEIARGLVDSKQSFLWVVRPGSVKGSTWVEPLPDGFLGERGKIVKWVPQQEVLAHGAIGAFWTHSGWNSTLESVCEGVPMIFSDFGLDQPLNARYMSDVLKVGVYLENGWERGEIANAIRRVMVDEEGEYIRQNARVLKQKADVSLMKGGSSYESLESLVSYISSL
initial rate: 5.5E+07 Reb M area/min

B6: UGT76G1var50: UGT76G1 variant, mutations F22Y_V310I_S375M_F377C (protein, UniProt Q6VAB4 1-458, looked up, variant F22Y V310I S375M F377C)
UDP-glycosyltransferase 76G1: MENKTETTVRRRRRIILFPVPYQGHINPILQLANVLYSKGFSITIFHTNFNKPKTSNYPHFTFRFILDNDPQDERISNLPTHGPLAGMRIPIINEHGADELRRELELLMLASEEDEEVSCLITDALWYFAQSVADSLNLRRLVLMTSSLFNFHAHVSLPQFDELGYLDPDDKTRLEEQASGFPMLKVKDIKSAYSNWQILKEILGKMIKQTKASSGVIWNSFKELEESELETVIREIPAPSFLIPLPKHLTASSSSLLDHDRTVFQWLDQQPPSSVLYVSFGSTSEVDEKDFLEIARGLVDSKQSFLWVIRPGFVKGSTWVEPLPDGFLGERGRIVKWVPQQEVLAHGAIGAFWTHSGWNSTLESVCEGVPMIFMDCGLDQPLNARYMSDVLKVGVYLENGWERGEIANAIRRVMVDEEGEYIRQNARVLKQKADVSLMKGGSSYESLESLVSYISSL
conversion Reb D to Reb M after 24 h: 1.9%
initial rate: 7.9E+05 Reb M area/min

B7: UGT76G1var51: UGT76G1 variant, mutations K303G_S357C_S389E_V396F (protein, UniProt Q6VAB4 1-458, looked up, variant K303G S357C S389E V396F)
UDP-glycosyltransferase 76G1: MENKTETTVRRRRRIILFPVPFQGHINPILQLANVLYSKGFSITIFHTNFNKPKTSNYPHFTFRFILDNDPQDERISNLPTHGPLAGMRIPIINEHGADELRRELELLMLASEEDEEVSCLITDALWYFAQSVADSLNLRRLVLMTSSLFNFHAHVSLPQFDELGYLDPDDKTRLEEQASGFPMLKVKDIKSAYSNWQILKEILGKMIKQTKASSGVIWNSFKELEESELETVIREIPAPSFLIPLPKHLTASSSSLLDHDRTVFQWLDQQPPSSVLYVSFGSTSEVDEKDFLEIARGLVDSGQSFLWVVRPGFVKGSTWVEPLPDGFLGERGRIVKWVPQQEVLAHGAIGAFWTHCGWNSTLESVCEGVPMIFSDFGLDQPLNARYMEDVLKVGFYLENGWERGEIANAIRRVMVDEEGEYIRQNARVLKQKADVSLMKGGSSYESLESLVSYISSL
initial rate: 9.5E+06 Reb M area/min
